Data taken from patent publication US20260355338 (published 2026).

T1: human EpCAM-mFc (human)
T1 chain: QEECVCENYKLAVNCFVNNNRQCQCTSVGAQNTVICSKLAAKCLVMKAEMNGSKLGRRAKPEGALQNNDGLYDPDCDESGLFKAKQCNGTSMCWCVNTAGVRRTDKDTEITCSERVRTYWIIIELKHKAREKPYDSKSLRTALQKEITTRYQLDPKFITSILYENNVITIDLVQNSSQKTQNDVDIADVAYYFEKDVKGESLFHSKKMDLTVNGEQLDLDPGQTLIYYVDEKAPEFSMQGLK

T2: EpCAM on HSC2 cells (human, UniProt P16422)
T2 chain: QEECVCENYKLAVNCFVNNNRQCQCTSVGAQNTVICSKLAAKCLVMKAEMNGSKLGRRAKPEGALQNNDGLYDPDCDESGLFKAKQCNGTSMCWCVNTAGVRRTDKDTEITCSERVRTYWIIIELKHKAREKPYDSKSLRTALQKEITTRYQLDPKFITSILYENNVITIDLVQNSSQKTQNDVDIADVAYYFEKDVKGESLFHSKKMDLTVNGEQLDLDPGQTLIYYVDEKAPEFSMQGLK


Legend:
human EpCAM-mFc = biological target: T1, human EpCAM-mFc; assay: ELISA
EpCAM on HSC2 cells [1] = biological target: T2, EpCAM on HSC2 cells; assay: FACS, HSC2 cells, apparent, low end of range
EpCAM on HSC2 cells [2] = biological target: T2, EpCAM on HSC2 cells; assay: FACS, HSC2 cells, apparent, high end of range

| Kd (human EpCAM-mFc) [nM] | Kd (EpCAM on HSC2 cells [1]) [nM] | Kd (EpCAM on HSC2 cells [2]) [nM] | Binder |
| --- | --- | --- | --- |
| 1.9 |  |  | EP04-3014 (1361-H) (antibody) chain 1: QVQLVQSGAEVKKPGASVKVSCKASGYTFTNYHIHWVRQAPGQRLEYIGWIYPGNVYIQYNEKFKGRATLTADKSASTAYMELSSLRSEDTAVYYCARDGPWFAYWGQGTLVTVSS chain 2: QGQSGQGWCPRLFDRPSMGCPTGGGSSGGAVGLLAPPGGLSGRSDNIGGSDIVLTQTPLSLSVTPGQPASISCRSSRSLLHSDGFTYLYWFLQKPGQSPQLLIYQTSNLASGVPDRFSSSGSGTDFTLKISRVEAEDVGVYYCAQNLELPNTFGQGTKLEIK |
| 37.6 |  |  | EP07-3014 (1565-Y) (antibody) chain 1: QVQLVQSGAEVKKPGASVKVSCKASGYTFTNYYIHWVRQAPGQRLEYIGWIYPGNVYIQYNEKFKGRATLTADKSASTAYMELSSLRSEDTAVYYCARDGYWFAYWGQGTLVTVSS chain 2: QGQSGQGHSGCPRLFDRCSAPAGGGSSGGAVGLLAPPGGLSGRSDNIGGSDIVLTQTPLSLSVTPGQPASISCRSSRSLLHSDGFTYLYWFLQKPGQSPQLLIYQTSNLASGVPDRFSSSGSGTDFTLKISRVEAEDVGVYYCAQNLELPNTFGQGTKLEIK |
| 147 |  |  | EP107-3014 (1361-H) (antibody) chain 1: QVQLVQSGAEVKKPGASVKVSCKASGYTFTNYHIHWVRQAPGQRLEYIGWIYPGNVYIQYNEKFKGRATLTADKSASTAYMELSSLRSEDTAVYYCARDGPWFAYWGQGTLVTVSS chain 2: QGQSGQGSKPCSYMHPYCFYNSGGGSSGGAVGLLAPPGGLSGRSDNIGGSDIVLTQTPLSLSVTPGQPASISCRSSRSLLHSDGFTYLYWFLQKPGQSPQLLIYQTSNLASGVPDRFSSSGSGTDFTLKISRVEAEDVGVYYCAQNLELPNTFGQGTKLEIK |
|  | 0.38 | 0.79 | muEpCAM23 (antibody, V domains shown) VH: EVKLEESGPALVKPGASVRISCKASGYTFTNYYIHWVKQRPGQGLDYIGWIYPGNVYIQYNEKFKGKATLTADKSSSTAFMQLSSLTSEDSAVYFCARDGPWFAYWGQGTLVTVSS VL: DIVLTQTPFSNPVTLGTSASISCRSSKSLLHSDGFTYLYWFLQKPGQSPHLLIYQTSNLASGVPDRFSSSGSGTDFTLRISRVEAEDVGVYYCAQNLELPNTFGGGTKLEIK |
